According to the supplement of paper PMC10126150:
± gives the standard deviation of the averaged measurements.

Test system: ATP
Test: switch fluorescence ratio, 500 uM ATP over buffer (Cy3 cluster intensity, sum of 5 cycles each) (fold (ratio)); higher = stronger signal-on switching upon ATP binding; sequences stand for … in TCGTCGGCAGCGTCAGATGTGTATAAGAGACAGTTTTTTTTTTTTTTTTTTTTTTTTT…TC
Conditions: aptamer strand: ATP DNA aptamer (quencher-CACCTGGGGGAGTATTGCGGAGGAAGG + anchor), 100 nM annealed; ATP concentration: 500 uM
Outline: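 Clusters with intensities outside 100-1000 RFU were excluded. The remaining Cy3-labelled switching-strand clusters on a modified Illumina MiSeq flow-cell had been annealed to 100 nM quencher-labelled ATP aptamer and imaged in selection buffer, then after 15 min with 500 uM ATP at 22 °C, for five cycles separated by NaOH stripping and re-annealing. The fluorescence ratio, averaged per switch-domain sequence, is each cluster's summed target-cycle Cy3 intensity over its summed buffer-cycle Cy3 intensity.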
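Further: ATP exposure 15 min at 22 °C before imaging.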

Sequence	switch fluorescence ratio
CGGCGGCAGG	0.9881 ± 0.0068
CGGCGGTCGG	0.9808 ± 0.0076
CGGCGTTCGC	0.964 ± 0.049
CGGCGTTGCT	0.981 ± 0.045
CGGCTACGGG	0.995 ± 0.046
CGGCTAGGTC	1.03 ± 0.012
CGGCTAGTGG	0.961 ± 0.032
CGGCTCGATA	0.976 ± 0.02
CGGCTCTTAG	0.99 ± 0.011
CGGCTGGAGT	1.001 ± 0.0043
CGGCTGGGGC	1.02 ± 0.015
CGGCTGGGGG	0.976 ± 0.014
CGGCTTATAT	1.06 ± 0.041
CGGCTTATGG	1.03 ± 0.07
CGGGAAAATG	0.988 ± 0.012
CGGGAAAATT	1.02 ± 0.025
CGGGAAATCC	1.042 ± 0.0085
CGGGAACTGG	0.97 ± 0.023
CGGGAAGGTT	1.08 ± 0.16
CGGGACCCCC	1.141 ± 0.011
CGGGACTGTT	1.02 ± 0.059
CGGGAGAATA	0.989 ± 0.013
CGGGAGAGAC	1.013 ± 0.0025
CGGGAGTCAG	1 ± 0.021
CGGGAGTTAG	1.02 ± 0.021

Sequence	switch fluorescence ratio
CGGGATAATC	1.07 ± 0.052
CGGGATATGG	1.03 ± 0.045
CGGGATCCAC	1.01 ± 0.034
CGGGATCTGG	0.977 ± 0.015
CGGGATGCCC	1.01 ± 0.047
CGGGATGGGG	1 ± 0.041
CGGGATGTTG	1.02 ± 0.035
CGGGATTCTG	1 ± 0.031
CGGGCAGCGT	0.986 ± 0.0076
CGGGCCATCG	0.9939 ± 0.0063
CGGGCCGAGG	1.02 ± 0.018
CGGGCCGGGT	0.976 ± 0.031
CGGGCCTTGG	1.026 ± 0.0016
CGGGCGGGGT	1.03 ± 0.051
CGGGCTACTA	1.05 ± 0.016
CGGGCTAGGG	0.9979 ± 0.0049
CGGGCTATCC	1.03 ± 0.03
CGGGCTATTC	1.22 ± 0.034
CGGGCTGGTG	1.0093 ± 0.0005
CGGGCTGTGG	0.992 ± 0.03
CGGGCTTAAG	1.02 ± 0.037
CGGGCTTGG	1.03 ± 0.021
CGGGGAAATA	1.01 ± 0.027
CGGGGAAATC	1.03 ± 0.035
CGGGGAATGG	1.01 ± 0.03

Sequence	switch fluorescence ratio
CGGGGACGGA	1.02 ± 0.029
CGGGGAGGCA	0.997 ± 0.031
CGGGGAGGTC	1.07 ± 0.072
CGGGGAGTGC	1.01 ± 0.061
CGGGGATACT	1.38 ± 0.24
CGGGGATCGG	0.984 ± 0.011
CGGGGATGTG	1.02 ± 0.025
CGGGGCAAAG	1.96 ± 1.6
CGGGGCACAG	1.005 ± 0.0014
CGGGGCAGAG	0.991 ± 0.043
CGGGGCGTGC	1.01 ± 0.029
CGGGGCTTGG	1.01 ± 0.023
CGGGGGACCG	1 ± 0.02
CGGGGGAGGA	0.997 ± 0.011
CGGGGGCAGC	1.01 ± 0.06
CGGGGGCCAG	0.994 ± 0.038
CGGGGGCGCA	0.9414 ± 0.007
CGGGGGCGCC	1.02 ± 0.031
CGGGGGCGGC	0.974 ± 0.014
CGGGGGCGGG	0.99 ± 0.042
CGGGGGCTAG	0.996 ± 0.012
CGGGGGCTTG	0.975 ± 0.02
CGGGGGGACT	0.998 ± 0.059
CGGGGGGCAC	0.999 ± 0.021
CGGGGGGCGT	0.999 ± 0.021

Sequence	switch fluorescence ratio
CGGGGGGGAC	1.11 ± 0.16
CGGGGGGGAT	1.02 ± 0.026
CGGGGGGGCC	0.99 ± 0.042
CGGGGGGGGA	1.02 ± 0.035
CGGGGGGTCG	1.04 ± 0.069
CGGGGGGTG	1.01 ± 0.05
CGGGGGTATG	0.994 ± 0.034
CGGGGGTCGT	0.98794 ± 0.00054
CGGGGGTCTG	1.01 ± 0.028
CGGGGGTGGT	1.01 ± 0.033
CGGGGGTTAA	0.9908 ± 0.0021
CGGGGGTTCA	1.01 ± 0.035
CGGGGGTTGG	0.999 ± 0.025
CGGGGGTTTC	1.02 ± 0.023
CGGGGGTTTG	1.01 ± 0.031
CGGGGTAAAG	0.9787 ± 0.0032
CGGGGTACTT	1.06 ± 0.056
CGGGGTAGGG	0.983 ± 0.016
CGGGGTCAAT	1.85 ± 1.2
CGGGGTCATT	0.979 ± 0.011
CGGGGTCGGT	0.963 ± 0.021
CGGGGTGCGT	1.02 ± 0.037
CGGGGTGCTA	1.007 ± 0.0077
CGGGGTGGGG	0.993 ± 0.056
CGGGGTGTGG	1.01 ± 0.033
